From publication PMC2690590, “Functional recombinant MHC class II molecules and high-throughput peptide-binding assays” (Immunome Research, 2009)

Key:
DR1 (DRA*0101/DRB1*0101) [1] = target: T1, DR1 (DRA*0101/DRB1*0101) (Homo sapiens, UniProt P01903+P01911, A100R/D57E/F55L/F60I/F76Y/I96L/L162R/M171V/P40L/Q125E/R42F/V115G/Y59C); assay: Competitive peptide-HLA-DR1 binding assay, radioactive spun column; settings: competition with 125I labelled (Y)HA306–318, spun column assay
DR1 (DRA*0101/DRB1*0101) [2] = target: T1, DR1 (DRA*0101/DRB1*0101); assay: Scintillation proximity assay (SPA), competitive, DR1; assay type: binding; settings: 30 nM DR1 α and β chain; 2 nM 125I labeled YHA306-318; refolding buffer pH 8; 24 h 18°C; streptavidin SPA beads

B1: Invariant Chain: a recombinant version of the extracellular part of human invariant chain (positions 73–208) (protein)
chain: QQQGRLDKLTVTSQNLQLENLRMKLPKPPKPVSKMRMATPLLMQALPMGALPQGPMQNATKYGNMTEDHVMHLLQNADPLKVYPPLKGSFPENLRHLKNTMETIDWKVFESWMHHWLLFEMSRHSLEQKPTDAPPK
binder to DR1 (in words) (DR1 (DRA*0101/DRB1*0101) [1]): good binders
binder to DR1 (in words), SPA (DR1 (DRA*0101/DRB1*0101) [2]): good binders
